Target: His×6-Okp1 (budding yeast, UniProt P53298 1-406)
Assay: pull-down

Chain of His×6-Okp1 (P53298 whole entry): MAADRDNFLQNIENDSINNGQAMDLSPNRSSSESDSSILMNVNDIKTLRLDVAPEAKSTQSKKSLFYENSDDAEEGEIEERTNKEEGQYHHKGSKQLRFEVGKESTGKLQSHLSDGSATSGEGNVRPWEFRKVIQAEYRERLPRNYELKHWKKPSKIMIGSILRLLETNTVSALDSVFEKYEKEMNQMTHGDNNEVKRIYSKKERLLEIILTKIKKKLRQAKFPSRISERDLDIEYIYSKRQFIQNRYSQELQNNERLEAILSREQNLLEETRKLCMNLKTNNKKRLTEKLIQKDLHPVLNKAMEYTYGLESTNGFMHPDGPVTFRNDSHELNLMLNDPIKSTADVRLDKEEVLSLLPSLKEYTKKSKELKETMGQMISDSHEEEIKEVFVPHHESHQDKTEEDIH

- binding result: binds
B1: GST-Sli15 (1-401) (domain or fragment)
chain: MDWAIKAARKKTQRKPGSTRSIIETLDDLNNLTTDAHSEINQRLYESSEWLRNNVYMNTLKYEDKKMEESLISPENTHNKMDVEFPKMKGEYELSNSQNDAAKDVTKTPRNGLHNDKSITPKSLRRKEVTEGMNRFSIHDTNKSPVEPLNSVKVDANESEKSSPWSPYKVEKVLRESSKTSESPINTKRFDNQTWAAKEEMENEPILQALKKAESVKVKPPPNSGIARSQRRSNMFVPLPNKDPLIIQHIPPTKSSGSIPKVRTVKESPIAFKKKSTINSPAIRAVENSDTAGSTKASSVFDRLSSIPTKSFENKISRGNVGHKYSSSSIDLTGSPMKKVSQKFKSINSTDTDMQEALRDIFSVKNKITKNNSPKGKNSRKSSIPRFDKTSLKLTTHKKLA
